Measurements as given in publication doi:10.1101/2025.11.13.688182.

Biological target: RAD51 full-length [F86E, A89E], co-expressed with BRC repeats (human) (UniProt Q06609)
Assay: SEC-SAXS

Chain of UniProt Q06609 (Q06609 whole entry F86E/A89E): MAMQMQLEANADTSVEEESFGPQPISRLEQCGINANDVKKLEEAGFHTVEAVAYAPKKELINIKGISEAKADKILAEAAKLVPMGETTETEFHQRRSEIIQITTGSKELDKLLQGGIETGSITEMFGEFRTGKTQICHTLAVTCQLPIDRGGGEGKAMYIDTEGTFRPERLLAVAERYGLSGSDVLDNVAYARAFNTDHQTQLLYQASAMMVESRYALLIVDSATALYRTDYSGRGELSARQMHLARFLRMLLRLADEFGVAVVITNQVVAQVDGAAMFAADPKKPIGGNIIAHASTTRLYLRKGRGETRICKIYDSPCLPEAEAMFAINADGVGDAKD

Row | stoichiometry, BRC repeats to RAD51 (RAD51 per BRC repeat) | Substance
1 | 1 | BRCA2 truncation BRC1-2 (from UniProt P51587 1-3418) (domain or fragment)
2 | 1 | BRCA2 truncation BRC1-4 (from UniProt P51587 1-3418) (domain or fragment)
3 | 1 | BRCA2 truncation BRC2-3 (from UniProt P51587 1-3418) (domain or fragment)
4 | 1 | BRCA2 truncation BRC2-4 (from UniProt P51587 1-3418) (domain or fragment)
5 | 1 | BRCA2 truncation BRC3-4 (from UniProt P51587 1-3418) (domain or fragment)
